# The supplement of paper PMC10126150
# ± gives the standard deviation of the averaged measurements.
# Tested on: ATP
# Assay: switch fluorescence ratio, 500 uM ATP over buffer (Cy3 cluster intensity, sum of 5 cycles each) (fold (ratio)); higher = stronger signal-on switching upon ATP binding; sequences stand for … in TCGTCGGCAGCGTCAGATGTGTATAAGAGACAGTTTTTTTTTTTTTTTTTTTTTTTTT…TC
# Conditions: aptamer strand: ATP DNA aptamer (quencher-CACCTGGGGGAGTATTGCGGAGGAAGG + anchor), 100 nM annealed; ATP concentration: 500 uM
# How it was run: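 Per cluster, summed Cy3 intensity from the target cycles was divided by that from the buffer cycles to give the fluorescence ratio, then averaged per switch-domain sequence. Clusters outside 100-1000 RFU were excluded. The Cy3-labelled switching-strand clusters, on a modified Illumina MiSeq flow-cell, were annealed to 100 nM quencher-labelled ATP aptamer and imaged in selection buffer, then after 15 min with 500 uM ATP at 22 °C, for five cycles with NaOH stripping and re-annealing between them.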
# 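Also: ATP exposure 15 min at 22 °C before imaging.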
row,Sequence,switch fluorescence ratio
1,AGTCATCGGG,0.9728 ± 0.0011
2,GGGGTTGTGG,0.988 ± 0.032
3,AGGCGACGTT,0.9931 ± 0.0069
4,TTTATAAGGA,0.997 ± 0.037
5,TTAGGGGACA,1.04 ± 0.025
6,ACTGGAGGGC,1.08 ± 0.1
7,TGGAATTGTG,1.05 ± 0.058
8,GAAATGTACG,1.04 ± 0.021
9,CGCGTCAACG,1.01 ± 0.027
10,AGCTGTACTG,1.09 ± 0.011
11,TTTTTTTGTA,1.01 ± 0.042
12,ATTGTGGTCC,1.007 ± 0.0082
13,TTAGATTGCG,0.973 ± 0.026
14,ATGGTGCGGG,1.02 ± 0.033
15,GTATAAATGC,0.988 ± 0.046
16,GTTCAGTAGG,0.9677 ± 0.0077
17,CTTCTACCTG,1.01 ± 0.035
18,TTAAGTGTAG,1 ± 0.021
19,GGGAGCGCGT,1.02 ± 0.056
20,GGGGGTAGTG,0.9946 ± 0.0063
21,GCGGTTGGAA,0.9927 ± 0.0034
22,AATTAGTGGG,0.995 ± 0.025
23,TTTTGTGTTA,0.997 ± 0.033

row,Sequence,switch fluorescence ratio
1,AAGCGCTGTT,1.003 ± 0.0073
2,TTTTTGCGGC,0.999 ± 0.03
3,CTGGGAGAGC,1.05 ± 0.053
4,ACAAGGGTC,0.964 ± 0.025
5,GTGACATGGA,1 ± 0.014
6,TTTGCACGTT,1.03 ± 0.037
7,TGATAGGATT,0.9764 ± 0.0021
8,ACATAATGTG,1.06 ± 0.013
9,GGCCGGCGTG,0.969 ± 0.031
10,AATTACTTTA,1.03 ± 0.029
11,ATAGTTCCAT,0.9783 ± 0.005
12,GGGATTAGCA,0.988 ± 0.042
13,TGGGTTTGGT,1.01 ± 0.014
14,GATCTGGACA,1.01 ± 0.032
15,TGTGACGAAC,1.23 ± 0.045
16,TCTTGTTTGA,1.008 ± 0.0059
17,GCGTTCCTTA,0.971 ± 0.024
18,GCGTATAGGG,0.964 ± 0.033
19,TAGTGTAGGA,1 ± 0.034
20,GGGTTGGGAG,0.998 ± 0.044
21,TTGGTGATGT,0.994 ± 0.044
22,GAACTCTTGT,1.05 ± 0.096
23,CTTCAAAAGG,1.68 ± 0.96

row,Sequence,switch fluorescence ratio
1,CAATTTAGTG,1 ± 0.047
2,TCTTGATTGT,0.974 ± 0.017
3,GGAGATATGT,0.987 ± 0.026
4,TTGCCATTGG,0.9905 ± 0.0062
5,AGGCGGATTT,1 ± 0.044
6,AATCGGGAA,0.9868 ± 0.0041
7,TTTTTAAGGC,1.02 ± 0.032
8,AAAATGGGTT,1 ± 0.059
9,TGGGTTGATG,0.959 ± 0.023
10,TTTGATAGTT,1.01 ± 0.018
11,TACGCTTTTT,1.02 ± 0.055
12,CTATCTTCGG,0.974 ± 0.038
13,GGGTAGGAAA,1.011 ± 0.007
14,TAGAGTAACA,1 ± 0.035
15,GGATTCAGGG,1.01 ± 0.018
16,GGGGGCCCTT,1.02 ± 0.043
17,GGGGGATGCT,0.975 ± 0.039
18,ATCCTAAATT,1.02 ± 0.0024
19,GAGGTGTAGC,1.01 ± 0.028
20,TTGTTCGGAG,1.0006 ± 0.00036
21,AATTTACTGT,1.01 ± 0.023
22,ATCATGTACA,0.996 ± 0.024
23,CGCGCTACTT,1.73 ± 0.039

row,Sequence,switch fluorescence ratio
1,TGAGATACGA,1.0108 ± 0.0001
2,GCATGTAGAT,0.998 ± 0.047
3,GTTGTTGCTC,0.987 ± 0.04
4,AACGTGTGGA,0.9979 ± 0.0093
5,AGGTTATGTG,0.999 ± 0.037
6,GGTCCTGTGG,1.005 ± 0.006
7,TCTTGTGAGG,1.04 ± 0.13
8,AAGTCCGATA,0.9941 ± 0.0038
9,ACGAACGGGG,1.27 ± 0.1
10,GGAACAGCTT,0.983 ± 0.017
11,GCATTGTGTG,0.991 ± 0.037
12,AATACCATCG,1.05 ± 0.033
13,TTGGAATGTT,0.952 ± 0.043
14,TCATGTTTTG,0.9969 ± 0.0032
15,GTTCGTTGAC,0.9862 ± 0.0067
16,GCTAACAGAG,0.984 ± 0.035
17,TGGGGGTTAG,1.01 ± 0.021
18,TTACAGTTAA,1.01 ± 0.021
19,AGGTAGCATA,1.05 ± 0.03
20,TGGATACACT,1.04 ± 0.032
21,CCGGTTGTGG,1.01 ± 0.02
22,TCCGGCTGGT,0.976 ± 0.024
23,TCAGGATATG,0.988 ± 0.035

row,Sequence,switch fluorescence ratio
1,GGGTATAGGC,0.981 ± 0.046
2,CGCGTCTGGG,1.01 ± 0.042
3,TCGGGTTCTT,1.02 ± 0.027
4,GTTTTAGGTT,0.993 ± 0.023
5,TTTTAATAGC,1 ± 0.028
6,ATTATGGAAG,0.994 ± 0.018
7,CATGAAGGTA,0.9566 ± 0.0087
8,GGGGGGTCT,1.09 ± 0.051
9,GGTGTTTTTT,0.99 ± 0.011
10,CTTAGACCCC,1.01 ± 0.02
11,TTATATGTAG,0.993 ± 0.024
12,AGCGGGGGAG,1.01 ± 0.012
13,TGGTAGAGTT,1 ± 0.016
14,AACGTGGCGA,1.03 ± 0.047
15,TGGGTGTTGG,1.01 ± 0.057
16,GGTGTGGGGG,1.01 ± 0.04
17,AGATTGGGGG,0.969 ± 0.034
18,ACCAACTCAG,1.24 ± 0.037
19,AGCTGGCCCT,1 ± 0.013
20,TGGTATGCGT,1.02 ± 0.024
21,GTTCTTGGGA,1.03 ± 0.077
22,ACGGATGTTT,0.997 ± 0.022
23,ATCATGCATT,0.989 ± 0.025

row,Sequence,switch fluorescence ratio
1,ATTGGTGTAG,0.972 ± 0.023
2,TATTGTTGGG,0.976 ± 0.03
3,ACCATTTGTC,1.06 ± 0.094
4,CGTGGCGCCG,0.957 ± 0.054
5,AACCACTTTA,1.06 ± 0.021
6,CTGGCTGCGG,1.01 ± 0.039
7,GAATGTGCAT,1.05 ± 0.047
8,ACATATATGA,1.06 ± 0.031
9,CCGAGCGCTT,4.69 ± 1.4
10,GAAAGAAAAA,1.09 ± 0.043
11,TTAAGTCCGG,0.9629 ± 0.0071
12,CAAGGAGGGA,1.01 ± 0.049
13,ATAAACAAAG,0.959 ± 0.015
14,GACGGGGTGT,1.059 ± 0.0039
15,GCAATTGATG,1.04 ± 0.017
16,CCCGGGTAAG,1.03 ± 0.024
17,GAGTGTCGCC,0.99 ± 0.021
18,ATCCGGGGAA,1.02 ± 0.0032
19,AGTCAATTAG,1.04 ± 0.012
20,TTAAGTAGGC,1.16 ± 0.19
21,TGGGGAAATA,1.41 ± 0.57
22,GATTTCCCCG,1.18 ± 0.028
23,TCATTTATGT,0.9665 ± 0.0014

row,Sequence,switch fluorescence ratio
1,TCACTGGTTC,1.032 ± 0.0038
2,GGGAATCCTT,1.03 ± 0.0018
3,GATACGGGGA,0.988 ± 0.029
4,CGTGGGACAG,0.976 ± 0.011
5,TGATGTGGGA,1.027 ± 0.0047
6,TTGGTTACAC,1.006 ± 0.0013
7,CGTGTGTATG,0.997 ± 0.0085
8,CGCTTCCGGG,1.37 ± 0.059
9,AGATTGAATG,0.97975 ± 0.00032
10,GAATTGGAAG,0.968 ± 0.025
11,AGTTTTGGTG,0.985 ± 0.01
12,AATATGAGGG,1.01 ± 0.042
13,CAATGGGACG,1.03 ± 0.098
14,TTTATGGTAA,0.9888 ± 0.0024
15,GTTACACGGT,1.01 ± 0.021
16,CAAGAGGGTG,1.11 ± 0.15
17,TCTATACCAC,1.06 ± 0.014
18,CAGTAAAGGG,0.9703 ± 0.0059
19,GACGCACTAA,2.76 ± 0.44
